Test results: publication PMC9213791, “Small Molecule RPI-194 Stabilizes Activated Troponin to Increase the Calcium Sensitivity of Striated Muscle Contraction” (Frontiers in Physiology, 2022)

Tests used:
[1] = target: T1, recombinant human aCys-cNTnC (C35S, C84S double mutant), N-terminal regulatory domain of cardiac troponin C (human); experiment: NMR titration; ssTnI peptide titrated to 0.1-3 equivalents into 15N-labeled cNTnC·RPI-194 complex (115 µM, 1:1 protein and drug); 100 mM KCl, 10 mM imidazole, pH ~6.7, 30°C; 2D 1H,15N HSQC; KD from TITAN, two-state model; conditions: both partners purified
T1 construct: human cardiac/slow skeletal troponin C, N-terminal regulatory domain (cNTnC); Uniformly 15N-labeled for NMR; also called cNTnC domain; isolated cNTnC domain; source: E. coli, expressed and purified as previously described (Cai et al., 2016), lyophilized; 15N-labeled

[2] = target: T1, recombinant human aCys-cNTnC (C35S, …); experiment: NMR titration; ssTnI peptide (10 mM stock in d6-DMSO) titrated to 0.5-30 equivalents into 15N-labeled cNTnC (115 µM); 100 mM KCl, 10 mM imidazole, pH ~6.7, 30°C; 2D 1H,15N HSQC; KD from 2D lineshape analysis (TITAN), two-state model; no RPI-194; conditions: both partners purified

Kd [1]: 22 µM
Kd [2]: 652 µM
B1: slow skeletal troponin I switch peptide (ssTnI) (peptide)
chain: RVSADAMLRALLGSKHK
modifications: synthetic peptide; termini not stated. Limits not printed: taken as the ssTnI equivalent (offset -30) of the conventional cTnI switch peptide 147-163, because the paper compares it with the …
